In patent publication US20250186594A1:

Columns and labels:
[1] = target: IL-18 variant SEQ ID NO: 57 (E6K, C38S, K53A) (human) (UniProt Q14116)
[2] = target: Native IL-18 wild-type (SEQ ID NO: 1, native sequence) (human) (UniProt Q14116)
[3] = target: IL-18 variant SEQ ID NO: 205 (V11I, C38A, K53A, T63A, C76A, C127A) (human) (UniProt Q14116); assay: cell-based or functional assay
[4] = target: IL-18 variant SEQ ID NO: 206 (V11I, C38A, K53A, S55A, C76A, C127A) (human) (UniProt Q14116); assay: cell-based or functional assay
[5] = target: IL-18 variant SEQ ID NO: 209 (F2A, V11I, C38A, K53A, C76A, C127A) (human) (UniProt Q14116); assay: cell-based or functional assay
[6] = target: IL-18 variant SEQ ID NO: 210 (V11I, E31A, C38A, K53A, C76A, C127A) (human) (UniProt Q14116); assay: cell-based or functional assay
[7] = target: IL-18 variant SEQ ID NO: 215 (V11I, E31A, D37A, C38A, K53A, C76A, C127A) (human) (UniProt Q14116); assay: cell-based or functional assay
[8] = target: IL-18 variant SEQ ID NO: 217 (V11I, C38A, N41A, K53A, C76A, C127A) (human) (UniProt Q14116); assay: cell-based or functional assay
[9] = target: IL-18 variant SEQ ID NO: 218 (V11I, C38A, K53A, C76A, C127A, D132A) (human) (UniProt Q14116); assay: cell-based or functional assay
[10] = target: IL-18 variant SEQ ID NO: 220 (V11I, C38A, K53A, C76A, H109A, C127A) (human) (UniProt Q14116); assay: cell-based or functional assay
[11] = target: IL-18 variant SEQ ID NO: 221 (V11I, C38A, K53A, C76A, D110A, C127A) (human) (UniProt Q14116); assay: cell-based or functional assay
[12] = target: IL-18 variant SEQ ID NO: 222 (K8R, V11I, C38A, C76A, Q103E, C127A) (human) (UniProt Q14116); assay: cell-based or functional assay
[13] = target: IL-18 variant SEQ ID NO: 223 (K8E, V11I, C38A, C76A, Q103R, C127A) (human) (UniProt Q14116); assay: cell-based or functional assay
[14] = target: IL-18 variant SEQ ID NO: 224 (V11I, C38A, C76A, Q103K, C127A) (human) (UniProt Q14116); assay: cell-based or functional assay
[15] = target: IL-18 variant SEQ ID NO: 225 (V11I, C38A, S55H, C76A, C127A) (human) (UniProt Q14116); assay: cell-based or functional assay
[16] = target: IL-18 variant SEQ ID NO: 229 (V11I, C38A, C76A, S105K, C127A) (human) (UniProt Q14116); assay: cell-based or functional assay
[17] = target: IL-18 variant SEQ ID NO: 28 (E6K, C38A, K53A, T63A, C76A, C127A) (human) (UniProt Q14116); assay: cell-based or functional assay
[18] = target: IL-18 variant SEQ ID NO: 30 with 20 kDa PEG (E6K, V11I, C38A, K53A, T63A, C76A, C127A, C68-20kPEG) (human) (UniProt Q14116); assay: cell-based or functional assay
[19] = target: IL-18 variant SEQ ID NO: 30 with 30 kDa PEG (E6K, V11I, C38A, K53A, T63A, C76A, C127A, C68-30kPEG) (human) (UniProt Q14116); assay: cell-based or functional assay
[20] = target: IL-18 variant SEQ ID NO: 30 with 5 kDa PEG (E6K, V11I, C38A, K53A, T63A, C76A, C127A, C68-5kPEG) (human) (UniProt Q14116); assay: cell-based or functional assay
[21] = target: IL-18 variant SEQ ID NO: 5 (E6K, V11I, C38A, K53A, T63A, C68A, C76A, M86C, C127A) (human) (UniProt Q14116); assay: cell-based or functional assay
[22] = target: IL-18 variant SEQ ID NO: 5 with 30 kDa PEG (E6K, V11I, C38A, K53A, T63A, C68A, C76A, C127A, M86C-30kPEG) (human) (UniProt Q14116); assay: cell-based or functional assay
[23] = target: IL-18 variant SEQ ID NO: 57 (E6K, C38S, K53A) (human) (UniProt Q14116); assay: cell-based or functional assay
[24] = target: IL-18 variant SEQ ID NO: 57 with 30 kDa PEG (E6K, C38S, K53A, C68-30kDPEG) (human) (UniProt Q14116); assay: cell-based or functional assay
[25] = target: IL-18 variant SEQ ID NO: 59 (E6K, C38A, K53A) (human) (UniProt Q14116); assay: cell-based or functional assay
[26] = target: IL-18 variant SEQ ID NO: 59 with 30 kDa PEG (E6K, C38A, K53A, C68-30kDPEG) (human) (UniProt Q14116); assay: cell-based or functional assay
[27] = target: IL-18 variant SEQ ID NO: 6 (E6K, V11I, C38A, K53A, T63A, C68A, C76A, D98C, C127A) (human) (UniProt Q14116); assay: cell-based or functional assay
[28] = target: IL-18 variant SEQ ID NO: 60 (E6K, C38Q, K53A) (human) (UniProt Q14116); assay: cell-based or functional assay
[29] = target: IL-18 variant SEQ ID NO: 62 with 30 kDa PEG (E6K, C38A, K53A, C127A, C68-30kPEG) (human) (UniProt Q14116); assay: cell-based or functional assay
IL-18 variant SEQ ID NO: 62 with 30 kDa PEG (E6K, C38A, K53A, C127A, C68-30kPEG) (human), sequence (Q14116 other isoform, or with tags, fused parts or gaps C38A K53A C127A C38A K53A C127A): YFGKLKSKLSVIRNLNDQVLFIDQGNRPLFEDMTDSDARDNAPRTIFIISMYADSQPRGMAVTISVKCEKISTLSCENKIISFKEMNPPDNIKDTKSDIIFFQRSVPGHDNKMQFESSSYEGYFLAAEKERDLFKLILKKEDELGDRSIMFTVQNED

IL-18 variant SEQ ID NO: 57 (E6K, C38S, K53A) (human), sequence (Q14116 other isoform, or with tags, fused parts or gaps C38S K53A C38S K53A): as the sequence (Q14116 other isoform, or with tags, fused parts or gaps C38A K53A C127A C38A K53A C127A) above, with A38S, A127C counted along it
IL-18 variant SEQ ID NO: 206 (V11I, C38A, K53A, S55A, C76A, C127A) (human), sequence (Q14116 37-193 V47I/C74A/K89A/S91A/C112A/C163A): as the sequence (Q14116 other isoform, or with tags, fused parts or gaps C38A K53A C127A C38A K53A C127A) above, with K6E, V11I, S55A, C76A counted along it
IL-18 variant SEQ ID NO: 229 (V11I, C38A, C76A, S105K, C127A) (human), sequence (Q14116 37-193 V47I/C74A/C112A/S141K/C163A): as the sequence (Q14116 other isoform, or with tags, fused parts or gaps C38A K53A C127A C38A K53A C127A) above, with K6E, V11I, A53K, C76A, S105K counted along it
IL-18 variant SEQ ID NO: 217 (V11I, C38A, N41A, K53A, C76A, C127A) (human), sequence (Q14116 37-193 V47I/C74A/N77A/K89A/C112A/C163A): as the sequence (Q14116 other isoform, or with tags, fused parts or gaps C38A K53A C127A C38A K53A C127A) above, with K6E, V11I, N41A, C76A counted along it
IL-18 variant SEQ ID NO: 210 (V11I, E31A, C38A, K53A, C76A, C127A) (human), sequence (Q14116 37-193 V47I/E67A/C74A/K89A/C112A/C163A): as the sequence (Q14116 other isoform, or with tags, fused parts or gaps C38A K53A C127A C38A K53A C127A) above, with K6E, V11I, E31A, C76A counted along it
IL-18 variant SEQ ID NO: 28 (E6K, C38A, K53A, T63A, C76A, C127A) (human), sequence (Q14116 other isoform, or with tags, fused parts or gaps C38A K53A T63A C76A C127A C38A K53A T63A C76A C127A): as the sequence (Q14116 other isoform, or with tags, fused parts or gaps C38A K53A C127A C38A K53A C127A) above, with T63A, C76A counted along it
IL-18 variant SEQ ID NO: 221 (V11I, C38A, K53A, C76A, D110A, C127A) (human), sequence (Q14116 37-193 V47I/C74A/K89A/C112A/D146A/C163A): as the sequence (Q14116 other isoform, or with tags, fused parts or gaps C38A K53A C127A C38A K53A C127A) above, with K6E, V11I, C76A, D110A counted along it
IL-18 variant SEQ ID NO: 57 with 30 kDa PEG (E6K, C38S, K53A, C68-30kDPEG) (human), sequence (Q14116 other isoform, or with tags, fused parts or gaps C38S K53A C38S K53A): as the sequence (Q14116 other isoform, or with tags, fused parts or gaps C38A K53A C127A C38A K53A C127A) above, with A38S, A127C counted along it
IL-18 variant SEQ ID NO: 5 with 30 kDa PEG (E6K, V11I, C38A, K53A, T63A, C68A, C76A, C127A, M86C-30kPEG) (human), sequence (Q14116 other isoform, or with tags, fused parts or gaps with the stated changes): as the sequence (Q14116 other isoform, or with tags, fused parts or gaps C38A K53A C127A C38A K53A C127A) above, with V11I, T63A, C68A, C76A, M86C counted along it
IL-18 variant SEQ ID NO: 5 (E6K, V11I, C38A, K53A, T63A, C68A, C76A, M86C, C127A) (human), sequence (Q14116 other isoform, or with tags, fused parts or gaps with the stated changes): as the sequence (Q14116 other isoform, or with tags, fused parts or gaps C38A K53A C127A C38A K53A C127A) above, with V11I, T63A, C68A, C76A, M86C counted along it
IL-18 variant SEQ ID NO: 209 (F2A, V11I, C38A, K53A, C76A, C127A) (human), sequence (Q14116 other isoform, or with tags, fused parts or gaps V11I C38A K53A C76A C127A V11I C38A K53A C76A C127A): as the sequence (Q14116 other isoform, or with tags, fused parts or gaps C38A K53A C127A C38A K53A C127A) above, with F2A, K6E, V11I, C76A counted along it
IL-18 variant SEQ ID NO: 225 (V11I, C38A, S55H, C76A, C127A) (human), sequence (Q14116 37-193 V47I/C74A/S91H/C112A/C163A): as the sequence (Q14116 other isoform, or with tags, fused parts or gaps C38A K53A C127A C38A K53A C127A) above, with K6E, V11I, A53K, S55H, C76A counted along it
IL-18 variant SEQ ID NO: 59 (E6K, C38A, K53A) (human), sequence (Q14116 other isoform, or with tags, fused parts or gaps C38A K53A C38A K53A): as the sequence (Q14116 other isoform, or with tags, fused parts or gaps C38A K53A C127A C38A K53A C127A) above, with A127C counted along it
IL-18 variant SEQ ID NO: 59 with 30 kDa PEG (E6K, C38A, K53A, C68-30kDPEG) (human), sequence (Q14116 other isoform, or with tags, fused parts or gaps C38A K53A C38A K53A): as the sequence (Q14116 other isoform, or with tags, fused parts or gaps C38A K53A C127A C38A K53A C127A) above, with A127C counted along it
IL-18 variant SEQ ID NO: 30 with 20 kDa PEG (E6K, V11I, C38A, K53A, T63A, C76A, C127A, C68-20kPEG) (human), sequence (Q14116 other isoform, or with tags, fused parts or gaps with the stated changes): as the sequence (Q14116 other isoform, or with tags, fused parts or gaps C38A K53A C127A C38A K53A C127A) above, with V11I, T63A, C76A counted along it
IL-18 variant SEQ ID NO: 30 with 30 kDa PEG (E6K, V11I, C38A, K53A, T63A, C76A, C127A, C68-30kPEG) (human), sequence (Q14116 other isoform, or with tags, fused parts or gaps with the stated changes): as the sequence (Q14116 other isoform, or with tags, fused parts or gaps C38A K53A C127A C38A K53A C127A) above, with V11I, T63A, C76A counted along it
IL-18 variant SEQ ID NO: 30 with 5 kDa PEG (E6K, V11I, C38A, K53A, T63A, C76A, C127A, C68-5kPEG) (human), sequence (Q14116 other isoform, or with tags, fused parts or gaps with the stated changes): as the sequence (Q14116 other isoform, or with tags, fused parts or gaps C38A K53A C127A C38A K53A C127A) above, with V11I, T63A, C76A counted along it
IL-18 variant SEQ ID NO: 222 (K8R, V11I, C38A, C76A, Q103E, C127A) (human), sequence (Q14116 other isoform, or with tags, fused parts or gaps V11I C38A C76A Q103E C127A V11I C38A C76A Q103E C127A): as the sequence (Q14116 other isoform, or with tags, fused parts or gaps C38A K53A C127A C38A K53A C127A) above, with K6E, K8R, V11I, A53K, C76A, Q103E counted along it
IL-18 variant SEQ ID NO: 60 (E6K, C38Q, K53A) (human), sequence (Q14116 other isoform, or with tags, fused parts or gaps C38Q K53A C38Q K53A): as the sequence (Q14116 other isoform, or with tags, fused parts or gaps C38A K53A C127A C38A K53A C127A) above, with A38Q, A127C counted along it
IL-18 variant SEQ ID NO: 224 (V11I, C38A, C76A, Q103K, C127A) (human), sequence (Q14116 37-193 V47I/C74A/C112A/Q139K/C163A): as the sequence (Q14116 other isoform, or with tags, fused parts or gaps C38A K53A C127A C38A K53A C127A) above, with K6E, V11I, A53K, C76A, Q103K counted along it
Native IL-18 wild-type (SEQ ID NO: 1, native sequence) (human), sequence (Q14116 37-193): as the sequence (Q14116 other isoform, or with tags, fused parts or gaps C38A K53A C127A C38A K53A C127A) above, with K6E, A38C, A53K, A127C counted along it
IL-18 variant SEQ ID NO: 218 (V11I, C38A, K53A, C76A, C127A, D132A) (human), sequence (Q14116 37-193 V47I/C74A/K89A/C112A/C163A/D168A): as the sequence (Q14116 other isoform, or with tags, fused parts or gaps C38A K53A C127A C38A K53A C127A) above, with K6E, V11I, C76A, D132A counted along it
IL-18 variant SEQ ID NO: 215 (V11I, E31A, D37A, C38A, K53A, C76A, C127A) (human), sequence (Q14116 37-193 V47I/E67A/D73A/C74A/K89A/C112A/C163A): as the sequence (Q14116 other isoform, or with tags, fused parts or gaps C38A K53A C127A C38A K53A C127A) above, with K6E, V11I, E31A, D37A, C76A counted along it
IL-18 variant SEQ ID NO: 223 (K8E, V11I, C38A, C76A, Q103R, C127A) (human), sequence (Q14116 other isoform, or with tags, fused parts or gaps V11I C38A C76A Q103R C127A V11I C38A C76A Q103R C127A): as the sequence (Q14116 other isoform, or with tags, fused parts or gaps C38A K53A C127A C38A K53A C127A) above, with K6E, K8E, V11I, A53K, C76A, Q103R counted along it
IL-18 variant SEQ ID NO: 220 (V11I, C38A, K53A, C76A, H109A, C127A) (human), sequence (Q14116 37-193 V47I/C74A/K89A/C112A/H145A/C163A): as the sequence (Q14116 other isoform, or with tags, fused parts or gaps C38A K53A C127A C38A K53A C127A) above, with K6E, V11I, C76A, H109A counted along it
IL-18 variant SEQ ID NO: 205 (V11I, C38A, K53A, T63A, C76A, C127A) (human), sequence (Q14116 37-193 V47I/C74A/K89A/T99A/C112A/C163A): as the sequence (Q14116 other isoform, or with tags, fused parts or gaps C38A K53A C127A C38A K53A C127A) above, with K6E, V11I, T63A, C76A counted along it

“Fc fused human IL-18BP isoform a (IL-18BPa) (from UniProt O95998 31-194) (Fc fusion)” gave an IC50 (read off the curve); IFNγ secretion by NK-92 cells (IFNg AlphaLISA signal, 615 nM) [1] of 200 nM, an IC50 (read off the curve); IFNγ secretion by NK-92 cells (IFNg AlphaLISA signal, 615 nM) [2] of 0.9 nM and an IC50 of IL-18BPa-Fc on IFNγ secretion, NK-92 [3] of 7.52 nM. The IC50 of IL-18BPa-Fc on IFNγ secretion, NK-92 [4] was 10.2 nM, the IC50 of IL-18BPa-Fc on IFNγ secretion, NK-92 [5] was 5.05 nM and the IC50 of IL-18BPa-Fc on IFNγ secretion, NK-92 [6] was 1.17 nM. It also gave an IC50 of IL-18BPa-Fc on IFNγ secretion, NK-92 [7] of 3.71 nM, an IC50 of IL-18BPa-Fc on IFNγ secretion, NK-92 [8] of 0.681 nM and an IC50 of IL-18BPa-Fc on IFNγ secretion, NK-92 [9] of 6.08 nM. It also gave an IC50 of IL-18BPa-Fc on IFNγ secretion, NK-92 [10] of 1.81 nM, an IC50 of IL-18BPa-Fc on IFNγ secretion, NK-92 [11] of 3.18 nM and an IC50 of IL-18BPa-Fc on IFNγ secretion, NK-92 [12] of 1.07 nM. For the same substance, the IC50 of IL-18BPa-Fc on IFNγ secretion, NK-92 [13] was 7.29 nM, the IC50 of IL-18BPa-Fc on IFNγ secretion, NK-92 [14] was 0.823 nM and the IC50 of IL-18BPa-Fc on IFNγ secretion, NK-92 [15] was 0.456 nM. The IC50 of IL-18BPa-Fc on IFNγ secretion, NK-92 [16] was 0.176 nM, the IC50 of IL-18BPa-Fc on IFNγ secretion, NK-92 [17] was 233 nM and the IC50 of IL-18BPa-Fc on IFNγ secretion, NK-92 [18] was 44.2 nM. It also gave an IC50 of IL-18BPa-Fc on IFNγ secretion, NK-92 [19] of 34.3 nM, an IC50 of IL-18BPa-Fc on IFNγ secretion, NK-92 [20] of 105 nM and an IC50 of IL-18BPa-Fc on IFNγ secretion, NK-92 [21] of 358 nM. The IC50 of IL-18BPa-Fc on IFNγ secretion, NK-92 [22] was 32.5 nM, the IC50 of IL-18BPa-Fc on IFNγ secretion, NK-92 [23] was 146 nM and the IC50 of IL-18BPa-Fc on IFNγ secretion, NK-92 [24] was 11.4 nM. The IC50 of IL-18BPa-Fc on IFNγ secretion, NK-92 [25] was 654 nM, the IC50 of IL-18BPa-Fc on IFNγ secretion, NK-92 [26] was 41.8 nM and the IC50 of IL-18BPa-Fc on IFNγ secretion, NK-92 [27] was 25.3 nM. It also gave an IC50 of IL-18BPa-Fc on IFNγ secretion, NK-92 [28] of 829 nM and an IC50 of IL-18BPa-Fc on IFNγ secretion, NK-92 [29] of 4.83 nM.
